This note sets out measurements from publication PMC10583174.

The assay addresses glucagon receptor (GCGR) (mouse (endogenous in primary hepatocytes)) (UniProt Q61606). The experiment in a line: radioligand binding.
UniProt Q61606, sequence (Q61606 27-485): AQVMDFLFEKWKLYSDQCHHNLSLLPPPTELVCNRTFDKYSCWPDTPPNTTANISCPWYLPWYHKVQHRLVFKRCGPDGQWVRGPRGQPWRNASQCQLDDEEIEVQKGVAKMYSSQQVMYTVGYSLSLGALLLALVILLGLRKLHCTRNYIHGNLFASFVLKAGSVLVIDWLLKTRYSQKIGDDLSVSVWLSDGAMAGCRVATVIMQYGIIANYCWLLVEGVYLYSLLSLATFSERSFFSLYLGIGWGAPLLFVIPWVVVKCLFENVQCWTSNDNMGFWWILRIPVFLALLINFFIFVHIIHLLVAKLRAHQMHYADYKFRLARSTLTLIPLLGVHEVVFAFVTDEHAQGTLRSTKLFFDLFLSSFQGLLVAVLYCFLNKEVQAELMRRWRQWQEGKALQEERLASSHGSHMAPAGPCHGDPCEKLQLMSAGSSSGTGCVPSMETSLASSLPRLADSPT

Turning to glucagon (human) (peptide), the fold Kd, GNE LKO over GNE WT hepatocytes is 10 fold.
